Reference: patent publication US20160009819A1

T1: human [1-305]-mouse chimeric EL with C2 tag (human; mouse) (UniProt Q9WVG5)
T1 sequence: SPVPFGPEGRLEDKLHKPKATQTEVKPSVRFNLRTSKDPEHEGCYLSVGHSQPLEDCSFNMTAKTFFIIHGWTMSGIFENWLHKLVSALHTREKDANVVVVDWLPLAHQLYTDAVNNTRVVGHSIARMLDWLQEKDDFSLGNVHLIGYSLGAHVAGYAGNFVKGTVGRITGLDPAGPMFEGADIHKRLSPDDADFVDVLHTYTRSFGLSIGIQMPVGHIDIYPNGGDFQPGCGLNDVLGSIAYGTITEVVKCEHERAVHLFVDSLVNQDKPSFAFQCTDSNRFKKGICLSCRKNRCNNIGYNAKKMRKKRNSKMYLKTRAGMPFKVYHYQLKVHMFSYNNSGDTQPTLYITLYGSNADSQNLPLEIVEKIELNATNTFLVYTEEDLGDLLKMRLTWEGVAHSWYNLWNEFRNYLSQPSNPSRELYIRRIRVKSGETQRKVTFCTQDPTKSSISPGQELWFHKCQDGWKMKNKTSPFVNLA

T2: human [202-500]-mouse chimeric EL with C2 tag (mouse; human) (UniProt Q9WVG5)
T2 sequence: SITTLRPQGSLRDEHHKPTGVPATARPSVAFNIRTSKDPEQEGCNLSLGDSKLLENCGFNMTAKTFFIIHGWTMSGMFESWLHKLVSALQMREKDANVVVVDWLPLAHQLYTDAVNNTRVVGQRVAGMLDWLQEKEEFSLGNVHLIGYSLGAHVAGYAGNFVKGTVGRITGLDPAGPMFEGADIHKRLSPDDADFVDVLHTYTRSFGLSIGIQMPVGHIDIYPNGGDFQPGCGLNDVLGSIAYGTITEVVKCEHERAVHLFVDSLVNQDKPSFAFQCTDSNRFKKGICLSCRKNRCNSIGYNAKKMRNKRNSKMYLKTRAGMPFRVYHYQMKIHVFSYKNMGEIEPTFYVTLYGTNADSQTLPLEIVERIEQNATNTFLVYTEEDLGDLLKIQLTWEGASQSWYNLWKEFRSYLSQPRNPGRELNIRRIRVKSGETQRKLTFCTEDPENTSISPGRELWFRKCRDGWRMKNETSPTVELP

T3: human [1-157]-mouse chimeric EL with C2 tag (human; mouse) (UniProt Q9WVG5)
T3 sequence: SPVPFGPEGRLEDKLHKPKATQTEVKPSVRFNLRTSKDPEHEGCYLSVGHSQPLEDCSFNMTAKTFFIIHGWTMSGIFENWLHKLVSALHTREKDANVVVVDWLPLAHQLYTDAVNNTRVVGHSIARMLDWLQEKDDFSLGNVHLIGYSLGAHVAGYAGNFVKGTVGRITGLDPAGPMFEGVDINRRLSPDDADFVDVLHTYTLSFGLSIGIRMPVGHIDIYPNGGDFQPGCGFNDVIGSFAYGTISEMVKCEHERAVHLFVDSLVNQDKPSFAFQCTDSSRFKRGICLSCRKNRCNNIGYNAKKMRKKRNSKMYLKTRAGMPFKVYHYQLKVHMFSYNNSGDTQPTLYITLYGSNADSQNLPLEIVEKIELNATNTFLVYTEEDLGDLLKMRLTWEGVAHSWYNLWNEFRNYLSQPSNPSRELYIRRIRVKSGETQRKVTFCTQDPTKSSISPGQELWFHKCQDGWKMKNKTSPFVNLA

B1: 19E7 antibody (antibody, V domains shown)
VH: QVQLQQPGSVLVRPGASVKLSCKASGYTFTTYWMHWVKQRPGQGLEWIGEIHPYSGNNNNNEKFKGKATLTVDTSSSTAYVDLSRLTSEDSAVYYCARYDSNYVFAYWGQGTLVTVSA
VL: QIVLTQSPAIMSASPGEGVTITCSASSSVSYMHWFQQKPGTSPKLWIYSTSNLASGVPARFSGSGSGTSYSLTISRMEAEDAATYYCQQRDSYLTFGSGTKLEVK
B2: 14E1 antibody (antibody, V domains shown)
VH: QVQLQQSGAELVKPGASVRLSCKASGYTFTKYTIHWVKQRSGQGLEWIGWFYPGSDSIKYNEKFKDKATLTADKSSRTVYMELSRLTSEDSAVYFCARHEEYTNSLAYWGQGTLVTVSA
VL: DIQMTQTTSSLSASLGDRVTISCRASQDISNYLNWYQQQPDGTVKLLIYYTSRLHSGVPSRFSGSGSGTDYSLTISNLEQEDIATYFCQQGYTLPWTFGGGTNLEIK
B3: 16B3 antibody (antibody, V domains shown)
VH: DVKLVESGGGLVQPGGSLKLSCTASGFTFSGYTMSWVRQTPEKRLELVAEISFARDRAFYPDTVKGRFTISRDNAKNTLYLQMSSLKSEDTAMYYCTRLGGRNHDYWYFDVWGTGTTVTVSS
VL: DIVLTQSPTSLAVSPGQRATISCRASESVEYYGTSLMQWYQQKPGQRPQLLIYAASNVESGVPARFSGSGSGTDFSLNIHPVEEDDIAVYFCQQSWKVPFTFGSGTKLEIK
B4: 16E7 antibody (antibody, V domains shown)
VH: EVKLVESGGGLVQPGGSLKLSCAASGFTFSSYTMSWVRQTPEKRLELVAEISFTRSRAFYPDTVKGRFTISRDNAKNTLYLQMSSLKSEDTAMYYCARLGGNNYDYWYFDVWGTGTTVTVSS
VL: DIVLTQSPTSLAVSLGQRATISCRASESVEYYGTSLMQWYQQKPGQRPKLLIYAASNVESGVPARFSGSGSGTDFSLNIHPVEEDDIAMYFCQQSWKVPFTFGSGTKLEIK
B5: 23H8 antibody (antibody, V domains shown)
VH: EVQLQQSGPELLKPGASVKISCKASGYTFTDNTIHWVKQSHGKSLEWIGHINPYYGGTNNNEKFKDKATLTVDKSSSTAYMELRSLTSEDSAIYYCARKGIYYSSPFDYWGQGTTLTVSS
VL: DIQMTQTTSSLSASLGDRVTISCRASQDINNYLNWYQQKPDGTVKLLISYTSKLHSGVPSRFSGSGSGTDYSLTISNLEREDFATYFCQQGNTLPFTFGSGTNLEIK
B6: 7D4 antibody (antibody, V domains shown)
VH: QIQLVQSGPELKKPGETVKISCKASGYTFTNYGMNWVKQAPGKDLKWMGWINTYSGVPTYADDFKGRFAFSLETSASTAYLQINNLKNEDTATYFCARFSYYGRHYFDYWGQGTTLTVSS
VL: DIVLTQSPASLAVSLGQRATISCKASQSVDYDGDSYMNWYQQKPGQPPQLLIYAASNLGSGIPARFSGSGSGTDFTLNIHPVEEEDAATYYCHQSTDDPPWTFGGGTKLEIK
B7: 14A1 antibody (antibody, V domains shown)
VH: QIQLVQSGPELKKPGETVKISCKASGYTFTNYGMNWVKQAPGKGLKWMGWINTYSGVPTYADDFKGRFAFSLETSASTAYLQINNFKNEDTATYFCARFSYYGRHYFDYWGQGTALTASS
VL: DIVLTQSPASLAVSLGQRATISCKASQSVDYDGDSYMNWYQQKPGQPPKLLIYAASNLKSGIPARFSGSGSGTDFTLNIHPVEEEDAATYYCQQTTDDPPWTFGGGTKLEIK
B8: 55A1 antibody (antibody, V domains shown)
VH: QIHLVQSGPELKKPGETVKISCKASGYTFTNYGMNWVKQAPGKGLKWMGWINTYSGVPTYAGDFKGRFAFSLETSASTAYLQINNLKNEDTATYFCARRGYYGRRYFDVWGTGTTVTVSS
VL: DIVLTQSPASLAVSLGQRATISCKASQSVDYDVDSYMHWYQQKPGQPPKLLIYAASNLASGIPARFSGGGSGTDFTLNIHPVEEEDVATYYCQQTIEDPPTFGGGTKLEIK
B9: 53A11 antibody (antibody, V domains shown)
VH: EVQLQQSGPELLKPGASVKISCKASGYTFTDYTMHWVKQSHGKSLEWIGGINPYYGGTTYNEKFKDKATLTVDKSSSTAYMELRSLTSEDSAVYYCAKGDYYGGSYNYWGQGTTLTVSS
VL: DIVLTQSLATLSVTPGDSVSLSCRASQDISNSLHWYQQKSHESPRLLIKYASQSISGIPSRFSGSGSGTDFTLSINSVETEDFGMYFCQQSNSWPYTFGGGTKLEIK
B10: 13B3 antibody (antibody, V domains shown)
VH: EVQLQQSGPELLKPGASVKISCKASGYTFTEYTMHWVKQSHGKSLEWIGSINPYYGGTSYNEKFKDKATLTVDKSSNTAYMEFRSLTSEDCAVYYCARYGNYVGYFDYWGQGTTLTVSS
VL: ENVLTQSPAIMSASLGEKVTMSCRASSSVHYMYWYQQKSDASPKLWIYYTSNLAPGVPDRFSGSGSGNSYSLTISSMEGEDAATYYCQQFTSSPYTFGGGTKLEIK

Each binder was assayed against T1, human [1-305]-mouse chimeric EL with C2 tag (human; mouse) (assay: ELISA: antibody captured on anti-mouse IgG-Fc plate, C2-tagged EL heparin extract added, anti-C2-tag detection, A450 (Example 8)).

Binder | EC50 (read off the curve)
B1 | 6 ng/mL

These binders were tested against T2, human [202-500]-mouse chimeric EL with C2 tag (mouse; human) in the same assay as above.

Binder | EC50 (read off the curve)
B2 | 20 ng/mL
B3 | 4 ng/mL
B4 | 8 ng/mL

Each binder was assayed against T3, human [1-157]-mouse chimeric EL with C2 tag (human; mouse) in the same assay as above.

Binder | EC50 (read off the curve)
B5 | 4 ng/mL
B6 | 6 ng/mL
B7 | 7 ng/mL
B8 | 4 ng/mL
B9 | 6 ng/mL
B10 | 4 ng/mL
